Assay results from article PMC2566858 (Nucleic Acids Research, 2008).
Where a chain is given by its changes, count along the chain named. Read-outs that look alike come from different tables or passages of the source.

T1: rGyr_hel K106Q (Thermotoga maritima, UniProt O51934 59-541, K106Q)
T1 sequence: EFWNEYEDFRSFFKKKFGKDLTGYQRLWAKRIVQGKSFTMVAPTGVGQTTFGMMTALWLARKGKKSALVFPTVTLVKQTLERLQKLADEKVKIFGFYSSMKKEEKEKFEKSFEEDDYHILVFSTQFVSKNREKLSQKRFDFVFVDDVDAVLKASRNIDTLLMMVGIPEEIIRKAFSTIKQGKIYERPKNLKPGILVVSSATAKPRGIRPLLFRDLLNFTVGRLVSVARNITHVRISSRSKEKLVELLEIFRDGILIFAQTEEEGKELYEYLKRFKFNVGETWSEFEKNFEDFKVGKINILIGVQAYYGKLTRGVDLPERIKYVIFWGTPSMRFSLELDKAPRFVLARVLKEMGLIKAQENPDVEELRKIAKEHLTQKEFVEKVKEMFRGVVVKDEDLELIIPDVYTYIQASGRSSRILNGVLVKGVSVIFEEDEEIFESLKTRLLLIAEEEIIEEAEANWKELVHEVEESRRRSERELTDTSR

T2: rGyr_hel (reverse gyrase helicase-like domain) (Thermotoga maritima, UniProt O51934 59-541)
T2 sequence: T1 sequence with Q48K

T3: rGyr_fl Y851F (full-length reverse gyrase) (Thermotoga maritima, UniProt O51934 1-1104, Y851F)
T3 sequence: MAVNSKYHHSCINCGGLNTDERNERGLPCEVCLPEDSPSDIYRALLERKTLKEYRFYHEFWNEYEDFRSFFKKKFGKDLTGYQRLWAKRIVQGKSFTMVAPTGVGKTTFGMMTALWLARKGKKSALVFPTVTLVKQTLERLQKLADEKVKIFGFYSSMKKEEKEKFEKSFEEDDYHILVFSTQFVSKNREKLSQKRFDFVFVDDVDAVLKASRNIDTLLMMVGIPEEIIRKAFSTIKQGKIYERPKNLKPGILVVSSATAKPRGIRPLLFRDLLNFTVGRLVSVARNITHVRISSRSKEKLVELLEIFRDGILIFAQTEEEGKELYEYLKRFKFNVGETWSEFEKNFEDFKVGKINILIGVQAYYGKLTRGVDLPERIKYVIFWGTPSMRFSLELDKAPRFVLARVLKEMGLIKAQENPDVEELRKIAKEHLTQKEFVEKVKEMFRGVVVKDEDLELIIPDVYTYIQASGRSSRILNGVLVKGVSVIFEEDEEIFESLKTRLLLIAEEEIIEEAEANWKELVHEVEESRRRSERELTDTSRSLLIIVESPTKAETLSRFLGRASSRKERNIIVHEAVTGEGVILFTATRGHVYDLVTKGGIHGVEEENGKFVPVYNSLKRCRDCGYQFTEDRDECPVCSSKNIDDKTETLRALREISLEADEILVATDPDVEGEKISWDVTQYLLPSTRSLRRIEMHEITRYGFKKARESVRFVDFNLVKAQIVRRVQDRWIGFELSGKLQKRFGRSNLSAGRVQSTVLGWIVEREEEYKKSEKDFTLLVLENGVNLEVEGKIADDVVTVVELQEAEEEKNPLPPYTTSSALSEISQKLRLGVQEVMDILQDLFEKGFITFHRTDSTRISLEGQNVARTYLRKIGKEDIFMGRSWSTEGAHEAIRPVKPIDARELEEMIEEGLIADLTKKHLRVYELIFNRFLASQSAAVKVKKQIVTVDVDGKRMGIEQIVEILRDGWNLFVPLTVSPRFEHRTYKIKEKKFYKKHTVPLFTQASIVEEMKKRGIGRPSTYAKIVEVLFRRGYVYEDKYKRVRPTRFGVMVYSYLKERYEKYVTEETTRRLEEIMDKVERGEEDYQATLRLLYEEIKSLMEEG

B1: 60-base ssDNA (ssDNA)
DNA: AAGCCAAGCTTCTAGAGTCAGCCCGTGATATTCATTACTTCTTATCCTAGGATCCCCGTT
B2: 60 bp dsDNA (dsDNA)
DNA 1: B1 DNA
DNA 2: AACGGGGATCCTAGGATAAGAAGTAATGAATATCACGGGCTGACTCTAGAAGCTTGGCTT

Experiments:
Experiment in all cases: fluorescence anisotropy
rGyr_hel K106Q = biological target: T1, rGyr_hel K106Q
[1] = biological target: T2, rGyr_hel (reverse gyrase helicase-like …)
[2] = biological target: T3, rGyr_fl Y851F (full-length reverse …)
[3] = biological target: T2, rGyr_hel (reverse gyrase helicase-like …); remark: listed apart in the source
[4] = biological target: T3, rGyr_fl Y851F (full-length reverse …); remark: listed apart in the source
[5] = biological target: T3, rGyr_fl Y851F (full-length reverse …); remark: listed apart in the source

Binder | Kd (rGyr_hel K106Q) [nM] | Kd [1] [nM] | Kd [2] [nM] | Kd [3] [nM] | Kd [4] [nM] | Kd [5] [nM]
B1 | 180 ± 30 | 200 ± 30 | 35 ± 5 | 1200 ± 200 | 60 ± 15 | 41 ± 9
B2 | 3800 ± 600 | 3900 ± 600 | 490 ± 60 | 1000 ± 100 | 250 ± 40 | 330 ± 70
